Among the data in US20060073517A1 are fold drop in binding affinity (against H3 methylated on Lys 9 without phospho-Ser 10) values, retold here.

The assay concerns the target histone H3 methylated on lysine 9 and phosphorylated on serine 10. The assay is described as follows: binding graph, method not stated (FIG. 2).

HP1 (heterochromatin protein 1): the fold drop in binding affinity (against H3 methylated on Lys 9 without phospho-Ser 10) stood at 100 fold.
